This is an account of results in patent publication US20220235109A1 (CUGENE, published 2022).

Substitutions are numbered along the chain they refer to. Numbers in names are those of the source. A value given as a limit tells only on which side of the number the result lay.

Assay [1] has as its target T1, IL-2Rβγ on human CD8+ T cells, NK cells and CD4+ T cells (human, UniProt P14784 27-551; P31785 23-369).
T1 sequence (looked up) 1: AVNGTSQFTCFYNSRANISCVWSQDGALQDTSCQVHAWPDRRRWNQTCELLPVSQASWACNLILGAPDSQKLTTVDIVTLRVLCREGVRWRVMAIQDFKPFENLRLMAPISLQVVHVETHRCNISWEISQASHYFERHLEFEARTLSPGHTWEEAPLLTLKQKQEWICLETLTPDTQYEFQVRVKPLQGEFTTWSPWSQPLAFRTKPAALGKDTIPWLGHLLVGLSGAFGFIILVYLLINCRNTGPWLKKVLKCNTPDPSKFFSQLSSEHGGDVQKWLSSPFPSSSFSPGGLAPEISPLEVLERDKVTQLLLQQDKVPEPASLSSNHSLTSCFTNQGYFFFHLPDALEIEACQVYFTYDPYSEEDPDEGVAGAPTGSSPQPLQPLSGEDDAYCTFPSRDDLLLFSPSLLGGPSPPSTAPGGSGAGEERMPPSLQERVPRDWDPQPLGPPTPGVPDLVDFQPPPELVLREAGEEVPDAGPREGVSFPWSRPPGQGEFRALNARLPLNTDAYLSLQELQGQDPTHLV
T1 sequence (looked up) 2: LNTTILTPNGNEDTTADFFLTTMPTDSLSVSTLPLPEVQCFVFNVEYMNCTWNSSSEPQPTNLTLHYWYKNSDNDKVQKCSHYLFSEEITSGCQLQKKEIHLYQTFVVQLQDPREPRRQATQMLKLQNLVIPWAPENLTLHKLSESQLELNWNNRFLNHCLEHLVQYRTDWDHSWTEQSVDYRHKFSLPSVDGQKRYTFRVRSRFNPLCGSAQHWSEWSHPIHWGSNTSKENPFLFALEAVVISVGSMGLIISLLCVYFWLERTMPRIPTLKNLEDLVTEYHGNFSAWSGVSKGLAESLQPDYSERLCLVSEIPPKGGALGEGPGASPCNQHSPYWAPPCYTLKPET
The assay is described as follows: cell-based or functional assay.

Assay [2] deals with T1, IL-2Rβγ on human CD8+ T cells, NK cells …. The assay can be described thus: cell-based or functional assay. The source holds these as a separate data set.
Assay [3] concerns the target T2, IL-2Rα-ECD (human, UniProt P01589 22-240).
T2 construct: coated on ELISA plates at 0.1 µg/well; also called CD25; receptor subunit α
T2 sequence: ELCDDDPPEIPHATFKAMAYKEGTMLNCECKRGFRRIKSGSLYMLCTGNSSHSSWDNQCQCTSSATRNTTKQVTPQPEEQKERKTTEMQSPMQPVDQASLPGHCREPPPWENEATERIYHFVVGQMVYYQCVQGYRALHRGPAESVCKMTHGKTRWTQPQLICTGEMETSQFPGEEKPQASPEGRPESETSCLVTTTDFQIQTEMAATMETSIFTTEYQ
The assay is described as follows: ELISA, IL-2Rα-ECD coated. The procedure:
A panel of IL-2 muteins was expressed as C-terminal fusions to the Fc homodimer of Fc heterodimer and screened for binding to IL-2Rα in enzyme-linked immunosorbent assay (ELISA). Briefly, IL-2Rα-ECD (SEQ ID NO: 5) was coated onto the wells of Nunc Maxisorp 96-well microplates at 0.1 μg/well. After overnight incubation at 4° C. and blocking with superblock (Thermo Fisher), 3-fold serial dilutions of IL-2 Fc fusion proteins starting at 100 nM were added to each well at 100 μI/well. Following one-hour incubation at room temperature, 100 μl/well of goat anti-human IgG Fc-HRP (1:5000 diluted in diluent) were added to each well and incubated at room temperature for 1 hour. Wells were thoroughly aspirated and washed three times with PBS/0.05% Tween-20 following each step. Finally, 100 μl TMB substrate was added to each well; the plate was developed at room temperature in the dark for 10 minutes, and 100 μl/well of stop solution (2N Sulfuric acid, Ricca Chemical) was added. Absorbance was determined at 450 nm and curves were fit using Prism software (Graph Pad).
For orientation: In an ELISA, binding on a coated surface is turned into a signal by an enzyme label.

The target of assay [4] is T3, IL-2Rα (CD25) on human CD4+ Treg cells (human, UniProt P01589 22-272).
T3 sequence (looked up): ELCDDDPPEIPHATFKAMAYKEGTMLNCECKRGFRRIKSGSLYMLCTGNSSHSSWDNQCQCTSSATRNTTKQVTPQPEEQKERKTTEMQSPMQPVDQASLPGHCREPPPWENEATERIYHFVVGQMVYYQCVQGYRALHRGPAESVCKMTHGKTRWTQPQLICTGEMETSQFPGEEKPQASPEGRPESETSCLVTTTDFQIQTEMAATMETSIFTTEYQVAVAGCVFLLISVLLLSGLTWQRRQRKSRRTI
The assay can be described thus: cell-based or functional assay.

B1: P-0880 (antibody, human IgG1, kappa)
heavy 1: not shown
heavy 2: EVQLVESGGGLVKPGGSLRLSCAASGFTFSSYDMSWVRQAPGKGLEWVATISGGGSYTYYPDSVKGRFTISRDNAKNSLYLQMNSLRAEDTAVYYCASPDSSGVAYWGQGTLVTVSSASTKGPSVFPLAPSSKSTSGGTAALGCLVKDYFPEPVTVSWNSGALTSGVHTFPAVLQSSGLYSLSSVVTVPSSSLGTQTYICNVNHKPSNTKVDKKVEPKSCDKTHTCPPCPAPEAAGAPSVFLFPPKPKDTLMISRTPEVTCVVVDVSHEDPEVKFNWYVDGVEVHNAKTKPREEQYNSTYRVVSVLTVLHQDWLNGKEYKCKVSNKALPAPIEKTISKAKGQPREPQVCTLPPSREEMTKNQVSLSCAVKGFYPSDIAVEWESNGQPENNYKTTPPVLDSDGSFFLVSKLTVDKSRWQQGNVFSCSVMHEALHNHYTQKSLSLSPG
light: DIVMTQSPLSLPVTPGEPASITCKASQDVETVVAWYLQKPGQSPRLLIYWASTRHTGVPDRFSGSGSGTDFTLKISRVEAEDVGVYYCQQYSRYPWTFGQGTKLEIKRTVAAPSVFIFPPSDEQLKSGTASVVCLLNNFYPREAKVQWKVDNALQSGNSQESVTEQDSKDSTYSLSSTLTLSKADYEKHKVYACEVTHQGLSSPVTKSFNRGEC
For the molecule B1, in assay [1], the “Ki67 EC50 (nM), CD8+ T” value stood at 1.7 nM; the “Ki67 EC50 (nM), NK” value came to 3.6 nM; the “pSTA5 EC50 (pM), CD8+ T” value came out at 73 pM; the “pSTA5 EC50 (pM), NK” value is 643 pM.

B2: P-0885 (antibody, human IgG1, kappa)
heavy 1: EVQLVESGGGLVKPGGSLRLSCAASGFTFSSYDMSWVRQAPGKGLEWVATISGGGSYTYYPDSVKGRFTISRDNAKNSLYLQMNSLRAEDTAVYYCASPDSSGVAYWGQGTLVTVSSASTKGPSVFPLAPSSKSTSGGTAALGCLVKDYFPEPVTVSWNSGALTSGVHTFPAVLQSSGLYSLSSVVTVPSSSLGTQTYICNVNHKPSNTKVDKKVEPKSCDKTHTCPPCPAPEAAGAPSVFLFPPKPKDTLMISRTPEVTCVVVDVSHEDPEVKFNWYVDGVEVHNAKTKPREEQYNSTYRVVSVLTVLHQDWLNGKEYKCKVSNKALPAPIEKTISKAKGQPREPQVYTLPPCREEMTKNQVSLWCLVKGFYPSDIAVEWESNGQPENNYKTTPPVLDSDGSFFLYSKLTVDKSRWQQGNVFSCSVMHEALHNHYTQKSLSLSPGGGGGSGGGGSGGGGSAPTSSSTKKTQLQLEHLLQDLQMILNGINNYKNPKLTRMLTFKFYMPKKATELKHLQCLEEELKRLEEVLNLAQSKNFHLRPRDLISNINVIVLELKGSETTFMCEYADETATIVEFLNRWITFIQSIISTLT
heavy 2: B1 heavy 2
light: B1 light
For the molecule B2, in assay [1], the “Ki67 EC50 (nM), CD8+ T” value stood at 9.3 nM; the “Ki67 EC50 (nM), NK” value turned out to be 21 nM; the “pSTA5 EC50 (pM), CD8+ T” value is 249 pM; the “pSTA5 EC50 (pM), NK” value amounted to 2330 pM.

B3: P-0882 (antibody, human IgG1, kappa)
heavy 1: B2 heavy 1 with Q480H
heavy 2: B1 heavy 2
light: B1 light
Turning to B3, in assay [1], the “Ki67 EC50 (nM), CD8+ T” value is 77 nM; the “Ki67 EC50 (nM), NK” value is 230 nM; the “pSTA5 EC50 (pM), CD8+ T” value was determined as 513 pM; the “pSTA5 EC50 (pM), NK” value is 9920 pM.

B4: P-0732 (Fc fusion)
chain: DKTHTCPPCPAPEAAGAPSVFLFPPKPKDTLMISRTPEVTCVVVDVSHEDPEVKFNWYVDGVEVHNAKTKPREEQYNSTYRVVSVLTVLHQDWLNGKEYKCKVSNKALPAPIEKTISKAKGQPREPQVCTLPPSREEMTKNQVSLWCLVKGFYPSDIAVEWESNGQPENNYKTTPPVLDSDGSFFLYSKLTVDKSRWQQGNVFSCSVMHEALHNHYTQKSLSLSPGGGGSGGGSAPTSSSTKKTQLQLEHLLLDLQMILNGINNYKNPKLTRMLTFKFYMPKKATELKHLQCLEEELKRLEEVLNLAQSKNFHLRPRDLISNINVIVLELKGSETTFMCEYADETATIVEFLNRWITFIESIISTLT
Fc: DKTHTCPPCPAPEAAGAPSVFLFPPKPKDTLMISRTPEVTCVVVDVSHEDPEVKFNWYVDGVEVHNAKTKPREEQYNSTYRVVSVLTVLHQDWLNGKEYKCKVSNKALPAPIEKTISKAKGQPREPQVYTLPPCREEMTKNQVSLSCAVKGFYPSDIAVEWESNGQPENNYKTTPPVLDSDGSFFLVSKLTVDKSRWQQGNVFSCSVMHEALHNHYTQKSLSLSPG
Turning to B4, the “Ki67 expression on human CD8+ T cells (EC50 against P-0704)” value in assay [2] was over 100 fold.

B5: P-0703 (Fc fusion)
chain 1: B4 chain with F276A, R299H, E360Q
chain 2: B4 Fc
notes: knob chain carries the IL-2 variant; hole-Fc; monovalent; also called IL-2 F42A/P65H/S125I monovalent Fc fusion
For the molecule B5, in assay [3], the “Binding EC50 vs P-0689” value is > 500 fold (ratio of EC50s) and the binding result is recorded as “no binding”.

B6: P-0702 (Fc fusion)
chain 1: B4 chain with F276A, E296F, R299P, E360Q
chain 2: B4 Fc
notes: knob chain carries the IL-2 variant; hole-Fc; monovalent; also called IL-2 F42A/E62F/S125I monovalent Fc fusion
Regarding B6, in assay [3], the “Binding EC50 vs P-0689” value is > 500 fold (ratio of EC50s) and the binding result is recorded as “no binding”.

B7: P-0767 (Fc fusion)
chain 1: B4 chain with F276A, E296H, R299P, E360Q
chain 2: B4 Fc
notes: knob chain carries the IL-2 variant; hole-Fc; monovalent; also called IL-2 F42A/E62H/S125I monovalent Fc fusion
For B7, in assay [3], the “Binding EC50 vs P-0689” value is > 500 fold (ratio of EC50s) and the binding result was “no binding”.

B8: P-0766 (Fc fusion)
chain 1: B4 chain with F276A, E296A, R299P, E360Q
chain 2: B4 Fc
notes: knob chain carries the IL-2 variant; hole-Fc; monovalent; also called IL-2 F42A/E62A/S125I monovalent Fc fusion
As for B8, in assay [3], the “Binding EC50 vs P-0689” value was > 500 fold (ratio of EC50s) and the binding result is reported as “no binding”.

B9: P-0765 (Fc fusion)
chain 1: B4 chain with F276A, R299A, E360Q
chain 2: B4 Fc
notes: knob chain carries the IL-2 variant; hole-Fc; monovalent; also called IL-2 F42A/P65A/S125I monovalent Fc fusion
With B9, the “Binding EC50 vs P-0689” value in assay [3] is 6.8 fold (ratio of EC50s).

B10: P-0837 (antibody, mouse IgG1, kappa)
heavy 1: EVQLQESGPGLVKPSQSLSLTCSVTGYSITSSYRWNWIRKFPGNRLEWMGYINSAGISNYNPSLKRRISITRDTSKNQFFLQVNSVTTEDAATYYCARSDNMGTTPFTYWGQGTLVTVSSAKTTPPSVYPLAPGSAAQTNSMVTLGCLVKGYFPEPVTVTWNSGSLSSGVHTFPAVLQSDLYTLSSSVTVPSSTWPSQTVTCNVAHPASSTKVDKKIVPRDCGCKPCICTVPEVSSVFIFPPKPKDVLTITLTPKVTCVVVAISKDDPEVQFSWFVDDVEVHTAQTKPREEQINSTFRSVSELPIMHQDWLNGKEFKCRVNSAAFGAPIEKTISKTKGRPKAPQVYTIPPPKKQMAKDKVSLTCMITNFFPEDITVEWQWNGQPAENYKNTQPIMKTDGSYFVYSKLNVQKSNWEAGNTFTCSVLHEGLHNHHTEKSLSHSPG
heavy 2: not shown
light: DIVMTQGTLPNPVPSGESVSITCRSSKSLLYSDGKTYLNWYLQRPGQSPQLLIYWMSTRASGVSDRFSGSGSGTDFTLKISGVEAEDVGIYYCQQGLEFPTFGGGTKLELKRTDAAPTVSIFPPSSEQLTSGGASVVCFLNNFYPRDINVKWKIDGSERQNGVLNSWTDQDSKDSTYSMSSTLTLTKDEYERHNSYTCEATHKTSTSPIVKSFNRNEC
In the case of B10, the “pSTAT5 EC50 in Treg cells (human PBMC)” value in assay [4] worked out at 0.45 pM.

B11: P-0838 (antibody, mouse IgG1, kappa)
heavy 1: B10 heavy 1
heavy 2: not shown
light: B10 light
With B11, the “pSTAT5 EC50 in CD8+ T cells (human PBMC)” value in assay [2] was 4.6 nM. Moreover, in assay [4], the “pSTAT5 EC50 in Treg cells (human PBMC)” value stood at 0.36 nM and the “pSTAT5 EC50 in Treg cells, fold against P-0837” value stood at 800 fold.
